Where “and” joins values, the source holds several entries; their conditions need not be identical. Equal entries are not always repeated.
Legend:
[1] = target: RSV F protein (immobilized on the BIAcore sensor chip) (respiratory syncytial virus); experiment: BIAcore, immobilized F protein;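 further: fab fragments as analytes binding F protein coupled to the chip via EDC/NHS chemistry, with blank surface signal subtracted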
[2] = target: T1, F protein of wild type RSV A/Long (respiratory syncytial virus strain …, UniProt P12568 26-574); experiment: cell-based or functional assay
[3] = target: T1, F protein of wild type RSV A/Long; experiment: cell-based or functional assay; remark: listed apart in the source

B1: P12f2 (Fab fragment) (Fab, V domains shown)
VH: QVTLRESGPALVKPTQTLTLTCTFSGFSLSTPGMSVGWIRQPPGKALEWLADIWWDDKKHYNPSLKDRLTISKDTSKNQVVLKVTNMDPADTATYYCARDMIFNFYFDVWGAGTTVTVSS
VL: DIQMTQSPSTLSASVGDRVTITCSLSSRVGYMHWYQQKPGKAPKLLIYDTFYLSSGVPSRFSGSGSGTEFTLTISSLQPDDFATYYCFQGSGYPFTFGGGTKVEIK
notes: Fab
- koff [1]: 0.000282 s⁻¹
- kon [1]: 663000 M⁻¹ s⁻¹
- Fold Difference (Control IC50) [2]: 16 fold
- Fold Difference (Curve IC50) [2]: 11 fold
- Mean IC50 (Control), RSV microneutralization [2]: 0.0326 µg/mL
- Mean IC50 (Curve), RSV microneutralization [2]: 0.0407 µg/mL
- EC50 (nM), in vitro microneutralization of RSV Long [3]: 0.65 nM

B2: 6H8 (Fab fragment) (Fab, V domains shown)
VH: QVTLRESGPALVKPTQTLTLTCTFSGFSLSTAGMSVGWIRQPPGKALEWLADIWWDDKKDYNPSLKSRLTISKDTSKNQVVLKVTNMDPADTATYYCARDMITNFYFDVWGAGTTVTVSS
VL: DIQMTQSPSTLSASVGDRVTITCSASSSVGYMHWYQQKPGKAPKLLIYDTFKLTSGVPSRFSGSGSGTEFTLTISSLQPDDFATYYCFQGSGYPFTFGGGTKLEIK
- koff [1]: 0.000178 s⁻¹ and 0.000473 s⁻¹
- kon [1]: 314000 M⁻¹ s⁻¹ and 444000 M⁻¹ s⁻¹

B3: P12f4 (Fab fragment) (Fab, V domains shown)
VH: QVTLRESGPALVKPTQTLTLTCTFSGFSLSTPGMSVGWIRQPPGKALEWLADIWWDGKKHYNPSLKDRLTISKDTSKNQVVLKVTNMDPADTATYYCARDMIFNFYFDVWGQGTTVTVSS
VL: DIQMTQSPSTLSASVGDRVTITCSLSSRVGYMHWYQQKPGKAPKLLIYDTRGLPSGVPSRFSGSGSGTEFTLTISSLQPDDFATYYCFQGSGYPFTFGGGTKVEIK
notes: Fab
- koff [1]: 0.000299 s⁻¹
- kon [1]: 527000 M⁻¹ s⁻¹
- Fold Difference (Control IC50) [2]: 15 fold
- Fold Difference (Curve IC50) [2]: 10 fold
- Mean IC50 (Control), RSV microneutralization [2]: 0.0351 µg/mL
- Mean IC50 (Curve), RSV microneutralization [2]: 0.0464 µg/mL
- EC50 (nM), in vitro microneutralization of RSV Long [3]: 0.7 nM

B4: P11d4 (Fab fragment) (Fab, V domains shown)
VH: QVTLRESGPALVKPTQTLTLTCTFSGFSLSTPGMSVGWIRQPPGKALEWLADIWWDGKKHYNPSLKDRLTISKDTSKNQVVLKVTNMDPADTATYYCARDMIFNWYFDVWGQGTTVTVSS
VL: DIQMTQSPSTLSASVGDRVTITCSPSSRVGYMHWYQQKPGKAPKLLIYDTMRLASGVPSRFSGSGSGTEFTLTISSLQPDDFATYYCFQGSGYPFTFGGGTKVEIK
notes: Fab
- koff [1]: 0.000717 s⁻¹
- kon [1]: 570000 M⁻¹ s⁻¹ and 572000 M⁻¹ s⁻¹
- Mean IC50 (Control), RSV microneutralization [2]: > 1 µg/mL
- Mean IC50 (Curve), RSV microneutralization [2]: > 1 µg/mL
- EC50 (nM), in vitro microneutralization of RSV Long [3]: > 20 nM

B5: A1e9 (Fab fragment) (Fab, V domains shown)
VH: QVTLRESGPALVKPTQTLTLTCTFSGFSLSTPGMSVGWIRQPPGKALEWLADIWWDGKKHYNPSLKDRLTISKDTSKNQVVLKVTNMDPADTATYYCARDMIFNWYFDVWGQGTTVTVSS
VL: DIQMTQSPSTLSASVGDRVTITCSLSSRVGYMHWYQQKPGKAPKLLIYDTFKLSSGVPSRFSGSGSGTEFTLTISSLQPDDFATYYCFQGSGYPFTFGGGTKVEIK
notes: Fab; also called *Ale9
- koff [1]: 0.000453 s⁻¹
- kon [1]: 790000 M⁻¹ s⁻¹
- Fold Difference (Control IC50) [2]: 4 fold
- Fold Difference (Curve IC50) [2]: 3 fold
- Mean IC50 (Control), RSV microneutralization [2]: 0.125 µg/mL
- Mean IC50 (Curve), RSV microneutralization [2]: 0.157 µg/mL
- EC50 (nM), in vitro microneutralization of RSV Long [3]: 2.5 nM

B6: A13a11 (Fab fragment) (Fab, V domains shown)
VH: QVTLRESGPALVKPTQTLTLTCTFSGFSLSTAGMSVGWIRQPPGKALEWLADIWWDDKKHYNPSLKDRLTISKDTSKNQVVLKVTNMDPADTATYYCARDMIFNWYFDVWGAGTTVTVSS
VL: DIQMTQSPSTLSASVGDRVTITCSASSSVGYMHWYQQKPGKAPKLLIYDTYRHASGVPSRFSGSGSGTEFTLTISSLQPDDFATYYCFQGSGYPFTFGGGTKLEIK
notes: Fab
- koff [1]: 0.00025 s⁻¹
- kon [1]: 735000 M⁻¹ s⁻¹
- Fold Difference (Control IC50) [2]: 5 fold
- Fold Difference (Curve IC50) [2]: 4 fold
- Mean IC50 (Control), RSV microneutralization [2]: 0.102 µg/mL
- Mean IC50 (Curve), RSV microneutralization [2]: 0.12 µg/mL
- EC50 (nM), in vitro microneutralization of RSV Long [3]: 2.04 nM

B7: H3-3F4 (Fab fragment) (Fab, V domains shown)
VH: QVTLRESGPALVKPTQTLTLTCTFSGFSLSTAGMSVGWIRQPPGKALEWLADIWWDDKKDYNPSLKSRLTISKDTSKNQVVLKVTNMDPADTATYYCARDMIFNWYFDVWGAGTTVTVSS
VL: DIQMTQSPSTLSASVGDRVTITCSASSSVGYMHWYQQKPGKAPKLLIYDTFKLASGVPSRFSGSGSGTEFTLTISSLQPDDFATYYCFQGSGYPFTFGGGTKLEIK
- koff [1]: 0.000445 s⁻¹ and 0.000402 s⁻¹

B8: Y10H6 (Fab fragment) (Fab, V domains shown)
VH: QVTLRESGPALVKPTQTLTLTCTFSGFSLSTAGMSVGWIRQPPGKALEWLADIWWDDKKDYNPSLKSRLTISKDTSKNQVVLKVTNMDPADTATYYCARDMIFNWYFDVWGAGTTVTVSS
VL: DIQMTQSPSTLSASVGDRVTITCSASSSVGYMHWYQQKPGKAPKLLIYDTRYLSSGVPSRFSGSGSGTEFTLTISSLQPDDFATYYCFQGSGYPFTFGGGTKLEIK
- koff [1]: 0.000462 s⁻¹
- kon [1]: 757000 M⁻¹ s⁻¹

B9: A12a6 (Fab fragment) (Fab, V domains shown)
VH: QVTLRESGPALVKPTQTLTLTCTFSGFSLSTAGMSVGWIRQPPGKALEWLADIWWDGKKDYNPSLKDRLTISKDTSKNQVVLKVTNMDPADTATYYCARDMIFNFYFDVWGQGTTVTVSS
VL: DIQMTQSPSTLSASVGDRVTITCSASSRVGYMHWYQQKPGKAPKLLIYDTFKLSSGVPSRFSGSGSGTEFTLTISSLQPDDFATYYCFQGSGYPFTFGGGTKVEIK
notes: Fab
- koff [1]: 0.00023 s⁻¹
- kon [1]: 743000 M⁻¹ s⁻¹
- Fold Difference (Control IC50) [2]: 17 fold
- Fold Difference (Curve IC50) [2]: 16 fold
- Mean IC50 (Control), RSV microneutralization [2]: 0.031 µg/mL
- Mean IC50 (Curve), RSV microneutralization [2]: 0.0287 µg/mL
- EC50 (nM), in vitro microneutralization of RSV Long [3]: 0.62 nM

B10: DG (Fab fragment) (Fab, V domains shown)
VH: QVTLRESGPALVKPTQTLTLTCTFSGFSLSTAGMSVGWIRQPPGKALEWLADIWWDDKKDYNPSLKSRLTISKDTSKNQVVLKVTNMDPADTATYYCARDMITNFYFDVWGAGTTVTVSS
VL: DIQMTQSPSTLSASVGDRVTITCSASSSVGYMHWYQQKPGKAPKLLIYDTFKLASGVPSRFSGSGSGTEFTLTISSLQPDDFATYYCFQGSGYPFTFGGGTKLEIK
- koff [1]: 0.000167 s⁻¹ and 0.000444 s⁻¹

B11: M3H9 (Fab fragment) (Fab, V domains shown)
VH: QVTLRESGPALVKPTQTLTLTCTFSGFSLSTAGMSVGWIRQPPGKALEWLADIWWDDKKDYNPSLKSRLTISKDTSKNQVVLKVTNMDPADTATYYCARDMIFNWYFDVWGAGTTVTVSS
VL: DIQMTQSPSTLSASVGDRVTITCSASSSVGYMHWYQQKPGKAPKLLIYDTYKQTSGVPSRFSGSGSGTEFTLTISSLQPDDFATYYCFQGSGYPFTFGGGTKLEIK
- koff [1]: 0.000338 s⁻¹
- kon [1]: 605000 M⁻¹ s⁻¹

From patent US20030091584A1 (AstraZeneca / MedImmune, published 2003)
